The values that follow come from the DeepSol protein solubility set.

The series is described as follows: soluble on expression in E. coli; label from the status in PepcDB or PDB records.
With “MGSDKIHHHHHHMTVHHHHHTHHVSLHKIKKLFSKHSSHGHKLTRDEARSALHDIEHLAKELHFQKVFDHHAHDGHISLKGFLSFISPHHGHHTHHAHGAHPGHHEVHHHHHHVKAQDSSSSSSSSSSSSSSSSSSSSSSSSSSSESEDEKHHHKKHAKKHLKKHHKKAESSSSSSSSSSSSSSSSSSSSSSESEDEKHHHKKHAKKHLKKHHKKAESSSSSSSSSSSSSSSSSSSSSSSESEDEKHHHKKHAVKKHHKKAESSSSSSSSSSSSSSSSSSEDEKHHHKKHAAKKHVKHHKKAASSSSSSSSSSSSSSSSSSSSSSESEDEKKKKKVHHKKSHGKKHHKKAASSSSSSSSSSSSSSSSSSSESEDEKKHAPAHHEHHEHKDGAHHEHKEGEHHEHAAHHDEHGVHHRHHGEHHGTHHSPAHHGEHGTHHGHHGEHHHAPAHHGHHESHGHGHHSPAHHGHHGEHHHAPAHHGHHGEHHHAPAHHGHHGEHGTHHGHHGSHHSPAHHGHHGEHHHAPAHHGHHGEHGTHHGHHGEHHHAPAHHGHHGEHGTHHGHHGSHHSPAHHGHHGEHHHAPAHHGHHGHHGSHGVHHGHHESHGHGHHAPAHHGHHGEHGVHHGHHGAGYGAHHGHHGAHHHHAPHHEHHEHHGDHHHGSHGVHHGHHGTHHSLAHHGHHGGHGTHHGAHHSPAHHGHHGAHHEHGAHHGAHHGHHDDKENHHHHGHHSKHSKKQHTKKSHKKSH”, the “soluble on expression in E. coli” value was “not soluble”.

As for “MGSDKIHHHHHHMVEIINPFDGGGYSLAEMTQAINILPNLYTRLGQMGLFRFEGVTQRSVIIEQAEGVLNLLPTVPLGGPATVANRDARSMRSFTVPWIPHDDSITPQDVQGVRGFGVADAADPLATVMERKLTRMRTKHAQTREFMEINALRGIVRDGSGSTLYDYFAEFGLVRQQVDFALGTAATNVQAKIREVLRLVEVELKGETMTSVTALVSPAFFDKLISHPKVESAYQYFSSTGAQPLREDVRRRFPFAGMVFEEYNATVTLATGSNETLVPAGEGIAFPLGTTDTFVTYGAPANLIETVNTMGLPMYARQLARQDGSAIDVKTEASILPVNKRPRLAVRIFSGN”, the “soluble on expression in E. coli” value was “not soluble”.

In the case of “SDPDADRVGIACKNDKGEWVLINGNQTCLMYLYYIITQYNKLGKMTGNEFCVKTIVTTELIKKIADKNHIEMLDCYTGFKWIAREIRLREGKKKYIGGGEESYGFLAEDFVRDKDAVSACCLIAEVAAWAKDNGKTLYQLLMDIYVEYGFSKE”, the “soluble on expression in E. coli” value is on record as “not soluble”.

For the sequence “MITLFQFPAAFNVPNASPYCLKLETWLRLAGLEYQVKVVSDPRKAPKGKLPYVRIEGEAIGDSEIVIRTLGERYGVTLDAGLDARGKGWARAITRLCDEHLYYLMLYFRWFDEDSWRVLKPVFFGSLPFGVRDAVAWAMRRKVRATLRAQGLGVHGRDELLAFARDDLDALDGLLGQVPYYGGEHPCSADAAAYGILANLIEATLDTPLSHVARGYPRLVAYCERMRERVWSELEHHHHHH”, the “soluble on expression in E. coli” value is “soluble”.

For the sequence “GSLKCILLNQAEELPIEFLPKDGVYGKGKLFDSRNMEIENFTESDILQDARRAAEAHRRARYRVQSIVRPGITLLEIVRSIEDSTRTLLKGERNNGIGFPAGMSMNSCAAHYTVNPGEQDIVLKEDDVLKIDFGTHSDGRIMDSAFTVAFKENLEPLLVAAREGTETGIKSLGVDVRVCDIGRDINEVISSYEVEIGGRMWPIRPISDLHGHSISQFRIHGGISIPAVNNRDTTRIKGDSFYAVETFATTGKGSIDDRPPCSHFVLNTYKSRKLFNKDLIKVYEFVKDSLGTLPFSPRHLDYYGLVKGGSLKSVNLLTMMGLLTPYPPLNDIDGCKVAQFEHTVYLSEHGKEVLTRGDDY”, the “soluble on expression in E. coli” value is “soluble”.

On to “MGSDKIHHHHHHMNKDLKAIKWFITTQILKDPFNPAYATFKVTSRCNLRCTFCSPSYYSGELGEGSTERVKKIIDNLRDSSIVVLSFEGGEPTYRPDILDLLEYAHDGSFYIMLTTNGYRLKDEDFLTKLADKIDFLHYSIDEYHWNVKELENLCRFRKYGLKVNVQTVVTRYNLYKLEEKVRKVAECGYKILAMPAVDYPNSKVKLAPDPYEFYKVLYDLKRKYGSTLNNSWGFINAIIGKVPKRVVSYAITIYPNGDLPYPDDINGEIVGNVAEEPLNKILQSSKVKELQQKMLENQAKFEYLHLQTASFNNIRDLASYVSEMLRWRFTGRA”, for which the “soluble on expression in E. coli” value was “not soluble”.

Consider “MVSQIGLLLPLSGDGQILGTTIQSGFNDAKGNSTIPVQVFDTSMNSVQDIIAQAKQAGIKTLVGPLLKQNLDVILADPAQIQGMDVLALNATPNSRAIPQLCYYGLSPEDEAESAANKMWNDGVRNPLVAMPQNDLGQRVGNAFNVRWQQLAGTDANIRYYNLPADVTYFVQENNSNTTALYAVASPTELAEMKGYLTNIVPNLAIYASSRASASATNTNTDFIAQMNGVQFSDIPFFKDTNSPQYQKLAKSTGGEYQLMRLYAMGADAWLLINQFNELRQVPGYRLSGLTGILSADTNCNVERDMTWYQYQDGAIVPVVDHHHHHH”, for which the “soluble on expression in E. coli” value is recorded as “soluble”.

For the sequence “MEVKMPFVVFVKRSVRFPGKHSYMIGGKSLLEIIVSKLSNIGKVYVFTKDKDIICNGCSIEFDTTNGIITDSVLAAIDKFGTFFAVAGDMPLIKPELVSKMLSQYKGSPLFPRHMDGMLEPLFGIYTEDLYNALKEYLDKGGESLHAFLLTQPLQYYDIGSDDEVNFININYKSDIEKYRDLLVQLLEHHHHHH”, the “soluble on expression in E. coli” value is given as “soluble”.

For “MGSDKIHHHHHHMTKPLINLVHANGFPAGSYKTFLQEFDNDFRTIAHNQFGHNVLYPIHNNWQHLVTELVEFIKKQDEKVICVGHSFGGVISFIAACQHPELFRGLVMLDPPVVTGAFSHLLSFIKRTPYIDKLSPAGKAKTRQNQWPENTNLVDYFSQKTLFKNFDSRCLQDYASSSVVLRNKRLELSFSPAVEADIFRHLPTNLVKYKNKLTVPAKLIYGEKTQIFPIKHFVRFAKLNDIELMTLPNGGHMFPLEQPENTANMVKQIIKDW”, the “soluble on expression in E. coli” value is “not soluble”.

As to “MGSDKIHHHHHHMIYMIIHKFIIHVLDKNSDVPILNDFEGKVNQEVDGFFQKAIKRIAKDEDLRKGVFKDYNDNLIKNCCEQIIYDESTFLKNSKEIASYLFDVMKINAALESCDLAICLYTIKDEKSVAILKLDYKKLYTHSIEFVDDKFNIQMVSNEIGIPETLRQKQGALISLSGINDEFHLRLLDKDAEKEGSESKFVTEFLNAKKIDDDKYKTKVFKNTAENWITNALSNDIKQAEDVRSILNYTLKEKHEVDINDFVDNSIKDDELKDSFKEHMEEKGLDESFSIDKKWVEKKLKKRSIKTDNGFDIKGNLTDFEDPMKYTVKQNQDGTIDIIIKNVTFYEEK”, the “soluble on expression in E. coli” value is recorded as “not soluble”.

For “MYFVDRTAVVLKPTARFLEWLKSTDENMPDLTIEQLRANCSVFLVPQFDEPEAVVSYFDERYRQIFEAELAGWDIDKDKWPQDMGLKAFWEFFDIEIHDIVLNMEEAELNITPVFDNMM”, the “soluble on expression in E. coli” value is “soluble”.

Take “MPSNPTRKGRVVVGMSGGVDSSVTAWLLKQQGYEVVGLFMKNWEDDDDSEYCSTRQDLLDAASVADLVGVEFEYVNFAAEYKDRVFAEFLREYSAGRTPNPDVLCNAEIKFKAFLDHAMALGAEHIATGHYARVRTVETPAGPRHQLLKALDDTKDQSYFLHRLNQVQLARTLFPLGELRKTEVRRIAHEIGLHNAAKKDSTGICFIGERPFREFLNRYLPSEPGPILTPEGQRVGTHHGLSFYTLGQRKGLGVGGVKGRQRDDGTAEAWYAARKDLARNVLYVVQGHDHPWLLSAQLQAQDASWIAGEPPAAGAYGAKTRYRQADAACRLDQAGGERFALAFEQAQWAVTPGQSAVLYDGEVCLGGGIIILEHHHHHH”: the “soluble on expression in E. coli” value was “soluble”.

On to “MGSDKIHHHHHHMRWGGASPIEATVRDLSLSRIYMRVTGDSLSTNAQDCPSSEILRIAVVSSPRSGNSWIRSTLAGALSMQEIAIHNYLDAPAVLPQRCFLQIHWYREPNFQAWLRENQFRVLTVARHPLDVLVSALHYIRYEPGTSRWLEGNVKLPGELANASPSSPEFLEYALGMGAEDLLSITYQWWNDPEVLRLRYEDAVANPEVVLGNQIAALGGSAQDVVPWLARLSIDKMRATPNRHGWQGSPGLWRRLIVPQDAIRIYRRHRRIFDTLGYTIRPYFLTRASAYRNWMERL”, for which the “soluble on expression in E. coli” value is “not soluble”.

Turning to “MIYIVGIGPGSRDYVTEKAFDTVETSDFVLGSKRSLEIFEINGERVELTVNLKNELYEFLKNYKNSDSKKKVSILSTGDPCFSGLLKTIFSFDFIEQDDFEVVPGI”, the “soluble on expression in E. coli” value is “not soluble”.

Turning to “MSLSNTELILIRVTGEDRPGLTASVTEILAKYDATILDIGQADIHNTLSLGILFRSEERHSGFIMKELLFKASSLGVTIRFEPIGTDQYENWVGMQGKNRYILTVLGRKLSARQISAATRVLAEQDLNIDAIKRLTGRIPLDEDKTDTRTRACIEFSVRGTPKDRIAMQERLMQLASEQEMDFSFQQDNMYRRMRRLICFDMDSTLIETEVIDELAIRAGVGDEVKAITESAMRGEIDFTESFTRRVALLKGLDESVMQEIAESLPITEGVDRLMYVLKKYGYKIAILSGGFTYFGQYLQKKYGIDYVYANELEIVDGKLTGRYLGDVVDGKRKAELLRLIAQVEKVDIAQTIAVGDGANDLPMLGIAGLGIAFHAKPKVVANAKQSINTIGLDGVLYFLGFKDSYLNEGHHHHHH”, the “soluble on expression in E. coli” value is “soluble”.

Turning to “MGSDKIHHHHHHMRTIWTPTLENFSGSKYEQLANAIGDAITRGELAPGSKLPPQRRLADALGVTLGTVTRAYTKAIYRGWVEARVGDGTYVRMAEPKSTGPLDLATCQQAVTDQAAFLGEVMSRMGRDPVRLAGLLDYHTANLEAQQETVLTFLARSGVDDFGGKLVFTHGAQQGLFAALAAICEPGDWVLHEAWCYPGLNRAAEALSLNLCGVSLLDDGLNLDELAACIDKHKPKAIYLTPNSQNPGCIGYSGAQRQRILALARAHDIIIIEDDVNYCTSQEWSAPIWQLAADAQSVVYLSSLSKRFAGGIRFGFMLLPARLQPRVNRIIHAHCWMVSPLLIEIGCELIRSGGIHQHRDAWIASLQQRFLTMAESLDLEAKSRGLNGRLTLPEGFRASNVIAALAAKGILARSLADFGGPANGIRFSLGRIPRGEEDEVFDRIQSTLTDVLNQGIAVV”, the “soluble on expression in E. coli” value is listed as “not soluble”.

In the case of “MGSDKIHHHHHHMQSKIAEAIKLGNQPVAVMRSDAKPEGAMQFKEGRWGCAISLLNMAAKGQVAVFANSTTTCSGGKVGLGFRQFELGFIEHFLSVGGVGGREGEFYKKNPELAGKFALELPKVTAKEYIIFKPLSELKADETPEGIIFLANADQISALTVLANYDRPTQDNVKVNFGAGCHQTVLFTLDQVDKDEDHCFIGLTDPSARKFIDKDILSFSMTYKRFLELEEQVEESFLTKETWLKVAERI”, the “soluble on expression in E. coli” value was “not soluble”.

For the sequence “MNQWLKKKRESLGYTQESFAKEIGIAKTTYSSYEQGYRNPTVQTAKKMAKILQVPWTIFFDEEVLETYDF”, the “soluble on expression in E. coli” value is reported as “not soluble”.

On to “MSLNPFGNALIPDMIADASIQEINGVFYCYATTDGYGQGLKTSGPPVVWKSKDFVHWSFDGTYFPSAAKEKYWAPSKAIFANGKYYIYPTINGYMYPAVADKPEGPFKLARGKDEFYKPFTPSTLLQSKNPGGIDAEIFVDDDGQAYVFWGRRHVAKLNEDMITVDSVVQVISTPRKEYSEGPIFFKRKGIYYYLYTIGGDEKYQYAYVMSRVSPMGPFEAPEQDIISTTNYERGIFGPGHGCVFHPEGTDNYYFAYLEFGRRSTNRQTYVNQLKFNEDGTIRPVELTMDGVGALKKVKSDKKMKIDTVYASSIEVPLKIEPMKDPTCLRTEYFVPSFAVDGANGSRWMAAAEDSINPWIVADLGTVKKVRRSEIYFVRPTAGHAYVIEASMDGKVWQEFAVHQDRKMCSPHTDVLNKRFRYLRIKILKGVPGIWEWNIYEGHHHHHH”, for which the “soluble on expression in E. coli” value was “not soluble”.
